Measured values taken from paper PMC8157113.

Biological target: Hepatitis B patients' plasma-derived HBsAg particles (HBV surface antigen, subviral particle of HBV)
Experiment: AlphaScreen
Settings: parent: est. 1.3; read off a plot

Myr47 lipopeptide (HBV pre-S1 domain, myristoylated 2–48 peptide), biotinylated Ala11–15
response: 1.4 RLU (×10^6)
